From the supplement of paper PMC9170038

Tested on: K4 kissing-loop RNA reporter
Assay: apparent KD of K4 kissing-loop reporter; higher = weaker reporter binding
Settings: Eterna round: R107
Description: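 RNA-MaP round R107: designed RNA switches with theophylline, tryptophan, arginine or FMN aptamers are transcribed on-chip within common flanks. They are titrated with a labelled K4 kissing-loop RNA reporter in RNA-MaP buffer (100 mM Tris pH 7.5, 80 mM KCl, 4 mM MgCl2), without ligand or with the indicated ligand. Median apparent KD per design.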

[1] = input ligand: theophylline 20 uM
[2] = input ligand: tryptophan 2.4 mM
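Further: bound reporter read as fluorescence of individual clusters on recovered sequencing chips by microscopy, with normalized cluster intensities fitted with a binding model.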

| Sequence | apparent KD of K4 kissing-loop reporter (input ligand: FMN 200 uM) | apparent KD of K4 kissing-loop reporter (input ligand: arginine 13.2 mM) | apparent KD of K4 kissing-loop reporter (input ligand: none) | apparent KD of K4 kissing-loop reporter [1] | apparent KD of K4 kissing-loop reporter [2] |
| --- | --- | --- | --- | --- | --- |
| AACUCUCAGACAUCUGAGUGAUGUUCAGGCCGAGGACCGGUACGGCCGCCACUCGGGUCUGAGAGAGGUUAUCAAAGAUAGCCAA [Omei KL Tryp A SS A v4] | 570 nM | 356 nM | 468 nM | 390 nM | 540 nM |
| AGAGAUAUAUGAGGAUAUGAGAUAGUUAAUGAGUGAGUUAUAGUGUUGUUUGGUUAGUGAUGUUAUUUAGAAGGCGUGAGUGAUG [immumullin] | 130 nM | 94.7 nM | 110 nM | 119 nM | 82.5 nM |
| UGAUUGCCAGUGAUGUUGGCAGGGUCUGAAGGAGCGCGUGAAAACGCAGGUAGGUCGCAGUAUGGUGCCAAUUGAUCGAAAGAUC [KL-XArg-A3] | 226 nM | 186 nM | 223 nM | 210 nM | 170 nM |
| GACUCAUGUAGAAGGAGCGUCAGAAGUUAUAGACAUGAGUGAUGUUCAUGUUAGCUGAUUUGACAGGUAGGUCGCUACAGCAGGA [KL-SSArg B16 #analogue] | 126 nM | 100 nM | 126 nM | 114 nM | 121 nM |
| CCUGCAGCUGUAACCGAGUGAUGCUACGGACGAGGACCGGUACGGCCGCCACUCGCCAGUGAUGUUGGUGUGGGAGGACGUAACU [KL-XTryp-A22] | 200 nM | 140 nM | 190 nM | 178 nM | 199 nM |
| UGACUACAAAAGGAAUAAUCCUAGUGAUGUUAGGAUAUGCUGAUAAGCAGAAGGAACGGAGAUCGAAAGAUCUCAUAUGUAGUCU [whbob_Ex_FMNA__2th192] | 141 nM | 87.4 nM | 82.8 nM | 98.5 nM | 87.4 nM |
| GCAUGUAUGCGAGAGUGAUGUUCAUGGUUUCGAGGACCGGUACGGCCGCCACUCGCGAUCCGGCGUACAAUCGUGAAGUUAUCAU [theeternabot_sameState_KL_Trp_A_42] | 736 nM | 469 nM | 655 nM | 542 nM | 672 nM |
| CGUUUAUUGCAGGAUACCAGUACCCAUUAUGUACGUUUAUAGUAGAGUGAUGUUCUAAAGUACCCUUGGCAGCUUCCCGUGACCC [#22 K4 Theophylline B Exclusion] | 119 nM | 193 nM | 142 nM | 188 nM | 90.3 nM |
| UGUACCGAGUCAGGAUAUCAACGACUGACAAAGUCGGUCGAAUAUCCAGUGAUGUUGGAAAAUAAAUGAGAAGGGACUUGGUACU [FmnBS 12 #SwitchBubble #StaticStem] | 137 nM | 361 nM | 360 nM | 341 nM | 344 nM |
| UCCUGCAAUCUGCCACGAAAGUGGAUUGAUACCAGAGUCGAAAGACUCCCUUGGCAGCGAGUGAUGUUCGUUGCAGGUAAAUAAA [MatMod 7 - Jieux - Exclusion - Theophylline A] | 181 nM | 178 nM | 175 nM | 170 nM | 149 nM |
| GCUAGGCAUGCAGGAUAUCGUGGAGUGAUGUUCCGUUGGCUGCUAGCGGAAAACGCUAGCAGCCUACGAGAAGGGCAUGCCUAGC | 192 nM | 356 nM | 425 nM | 410 nM | 368 nM |
| AUUUAAUUAACUGAUACCAGACUUUUUGUUUUGUUUAUUACUAGUGAUGUUAGUGUUUCUGUCCCUUGGCAGCAGUAUCUACUUA [JR_ExcTheophyB_Sub015] | 134 nM | 202 nM | 131 nM | 239 nM | 122 nM |
| CGGAACGCAUCGGCCGCCACUUUUAUCUGCAGUGAUGUUGCAGUAUCCGAGCAAGGCUGUUGUGAAAGGACCGGGAUGGUCCGUU [Tibeberi] | 87.5 nM | 96.6 nM | 92.7 nM | 97.4 nM | 143 nM |
| AAGGUCACUGCUACAGUGAUGUUGUGGGAGCAGGAUAUGCUGAAAAGCAGAAGGGCUCGCUCCAGGUGACCGAAUGAAACAUUCA [whbob_SS_FMNA__2th176] | 1140 nM | 718 nM | 1290 nM | 792 nM | 1110 nM |
| AUUUUGGUUUAGAGUGAUGUUCCUUGUAUUCGAGGACCGGUACGGCCGCCACUCGAAUAGAAAAGAAAAGAAAUGUGUGAUGUUU [BDazzled - #5 SS Tryptophan A] | 772 nM | 611 nM | 900 nM | 764 nM | 567 nM |
| GGUAGCGCCAGAGAUACCAGUCAUAUCGCUCUGGAGUGAUGUUCCGGAACGUGCGGAGAAGACCCUUGGCAGCUCAUGACGGUAU [Exclusion Theophylline B GF 3] | 219 nM | 175 nM | 189 nM | 227 nM | 171 nM |
| GGAUAGGACAGAGGAUAUGGUAGUGAUGUUACCAACAGCCUACUGUCAAUAAAGACGGUUGGCUGACCAGAAGGCUGUCCUAUCG [Mod of Eli's FmnBX 26 v1] | 564 nM | 132 nM | 145 nM | 148 nM | 142 nM |
| UGCGCUGUGUACUGAAAUGUCCUGCGGGAUACCAGAGUCUUUUUAUUCCCUUGGCAGCUUGAGUGAUGUUUGAUGCCGUUCUUGU [frrgmullin] | 786 nM | 423 nM | 710 nM | 738 nM | 470 nM |
| ACGCGCGCGAGUGAUGUUCGGAGCGGCUGGCAGGAUAUGUAGCAAUGCAGAAGGGUCGUGGCUGCUGGUAGGAAACUACUGGCAG [#2 Exclusion - FMN A Attempt #4 (HarryS)] | 252 nM | 316 nM | 424 nM | 358 nM | 441 nM |
| GUAGAUAGGCUACAUCUCUAGUCUAUAGACUAGGAUAUCAGGAAACUGAGAAGGAGUCUCAUUGGAGUGAUGUUCCAAGAAUAAU [KL-SSFMN-A15] | 120 nM | 115 nM | 114 nM | 133 nM | 85.1 nM |
| AUUUUAUUAACUGAUACCAGACUUAAUGAUUUGUAAAUUACUAGUGAUGUUAGUGAUUCUGUCCCUUGGCAGCAGUAUUUAUUUA [JR_ExcTheophyB_Sub013] | 76.2 nM | 85.6 nM | 79.2 nM | 87.6 nM | 69.4 nM |
| UUAGAGAUCUCAGGAUAUCAGUGAUGUUGGUAUCAAGAUCUGAGAUAGAAUUCUAUCUCAGAUCAAUGAGAAGGGAGAUCUCAUU [AK3.3 Exc FMN B] | 374 nM | 110 nM | 105 nM | 176 nM | 118 nM |

| Sequence | apparent KD of K4 kissing-loop reporter (input ligand: FMN 200 uM) | apparent KD of K4 kissing-loop reporter (input ligand: arginine 13.2 mM) | apparent KD of K4 kissing-loop reporter (input ligand: none) | apparent KD of K4 kissing-loop reporter [1] | apparent KD of K4 kissing-loop reporter [2] |
| --- | --- | --- | --- | --- | --- |
| AAACAUCACUGGGAGUGAUGUUCUCAGUGACGAGGACCGGUACGGCCGCCACUCGCGAGAGAUAUAAUUAAGUAAUGACAUCAUU [Excl Tryptophan A V6] | 260 nM | 267 nM | 274 nM | 341 nM | 327 nM |
| GUAGACGUACCUUCAGUGAUGUUGAAGGAUACCAGAUGUUAUCACAUCCCUUGGCAGCCUUGGGAUAACAGUGAGUCGGAAUAUG [Essoaran] | 170 nM | 142 nM | 184 nM | 159 nM | 168 nM |
| UCCCGAGUGAUGUUUGGCUGAUGGAGUGAUACCAGUCCCUAGACUGACCCUUGGCAGCACGACUUGUACCAGGCGGAUCACCCUG [theeternabot_exclusion_KL_Theo_A_5] | 479 nM | 260 nM | 423 nM | 431 nM | 366 nM |
| AUUAAUUUCAGAGGAUAUGCUUUAUUAUUAUUUUUAAAUAAUAAAUGCAGUGAUGUUGCUUAUUAUGCAGAAGGCUGAUUUAUAA [JR_SSFMNB_Sub014] | 119 nM | 625 nM | 603 nM | 586 nM | 545 nM |
| AAGCUCAGCGUGACUCGAUAAGAGUCACAACGAGGACCGGUACGGCCGCCACUCGAAAUAAGAGAGUGAUGUUCUCGCUGAGCAA [#SwitchBubble 6 #StaticStem #K4Late] | 631 nM | 344 nM | 620 nM | 824 nM | 548 nM |
| AAAACCAAAAGCGAUACCAGCGCGGAGUGAUGUUCCGAGGAUCGGAGUGAUGUUCCGAAGCGCCCUUGGCAGCGCAAAAGCGCAA [Exclusion Theophylline B GF 7] | 207 nM | 139 nM | 171 nM | 196 nM | 164 nM |
| GCCGUACGCAUGGAUACCAGUCUUAGAGUGAUGUUCUAAACGAUUGCGCCUGGAUCAAUGGACCCUUGGCAGCCAUGCGUACGGC | 130 nM | 119 nM | 129 nM | 92.4 nM | 154 nM |
| CGCCACGACUGAAGGAGCGCGCCAGUGAUGUUGGACGGCUUUGUCAAGGAAACUGCACCGGUGCAGGUAGGUCGCAGUUCGUGGU [Quisbiri] | 398 nM | 421 nM | 537 nM | 588 nM | 362 nM |
| AUUUUUUUAUCAGGAUAUUAGUGUUGGUUUGUUUUGUUAGUGAUGUUGAUAUUUGUUUUAUGUAUUUAAGAAGGGAUUUAGAUGU [viuupullin] | 270 nM | 243 nM | 270 nM | 371 nM | 194 nM |
| AAUAAAAUCACGGCCGCCACUGAAUUAUUGGUAAGUAGUGAUGUUACUUUACAUAUCUAAUUUAACAGGACCGGGUGAAUAUUUA [#17 K4 Tryptophan B Exclusion] | 130 nM | 93.4 nM | 113 nM | 96.6 nM | 131 nM |
| GCGCGUCAUGUCAGCGGUGACACUGUCGAUACCAGCGCCGUAAGGCGCCCUUGGCAGCGACGUGCUGGAGUGAUGUUCCAGCGUC [#2 Exclusion - Theophylline A Attempt #20 (HarryS)] | 178 nM | 110 nM | 149 nM | 126 nM | 141 nM |
| CCAACGUGAAAAGGAUAUCGCGAUGUGCACGACUAGUGAUGUUAGGAGAGGCUCGUUGAAUUGUACCGAGAAGGUUUUGAGUGGG [theeternabot_sameState_KL_FMN_B_16] | 227 nM | 160 nM | 240 nM | 231 nM | 196 nM |
| GCAUAGGCCCAUCGGAAUUCGAGACCAGCACGAGGACCGGUACGGCCGCCACUCGUGCAGUGAUGUUGCACGAUUGGGAAACCGC [Beanveceti] | 115 nM | 100 nM | 101 nM | 104 nM | 111 nM |
| AUUUAGACGAGUGAUGUUCGUGUUAUUACAGAGGAUAUGCGUAAUUGCAGAAGGCUGUAUUUAUAUAUGUUAUGUAAUUUUAAAA [JR_ExcFMNA_Sub007] | 89.5 nM | 108 nM | 88 nM | 99.4 nM | 73.2 nM |
| GGAUAGGACAGAGGAUAUCCAGUGAUGUUGGAGAAUUCUCCUUCAACAUGUCACAAAAGUGGCAUGGGAGAAGGCUGUCCUAUCG [Mod of Eli's FmnBX 29 v2] | 388 nM | 120 nM | 122 nM | 99.7 nM | 108 nM |
| AGCAAUAUCACGGCCGCCACUGAUUAUUGUUUUUAUAGUUAUAAAUCUUGCCAGUGAUGUUGGUUCAGGACCGGGUGAGUUAAUA [JR_SSTryptoB_Sub002] | 498 nM | 565 nM | 727 nM | 620 nM | 373 nM |
| UUCUGCAUCUCGGCCGCCACUCACUAGUGAUGUUAGUAAGGAGCGACUAGACAUGUCCCGUUAUUGAGGACCGGGAGAGGCUCUU [#13 K4 Tryptophan B Exclusion] | 208 nM | 162 nM | 192 nM | 162 nM | 140 nM |
| CCUUUCAGUUACGAUACCAGUCUAAUAUAUUUGAUCAAUACCCUCGCCGAGUGAUGUUCGGACCCUUGGCAGCGUCUGGGACAGG [gbbymullin] | 526 nM | 428 nM | 525 nM | 418 nM | 337 nM |
| CCAUCGCUAUUCGAUACCAGUCAAGAGGUCUUUGGCCUCUUAAUGGAGUGAUGUUCCUUAGACCCUUGGCAGCGAAUAGUGAUGG [Theophylline B K4 13] | 266 nM | 127 nM | 237 nM | 340 nM | 124 nM |
| AUUCUGUUUUUAAUGUUUAUUGUAUAAUGGCAGGAUAUCGUAGAAGCGAGAAGGGCUUUUAUGCGUUAUGAGUGAUGUUUGUAGG [dhhyfvmullin] | 364 nM | 247 nM | 267 nM | 410 nM | 270 nM |
| AACUCUCAGACACUUGAGUGAUGUUCGGGCCGAGGACCGGUACGGCCGCCACUCGGGUCUGAGAGAGGUUAUCAAAGAUAGCCAA [Omei KL Tryp A SS A v9] | 303 nM | 87.3 nM | 153 nM | 141 nM | 164 nM |
